From the supplement of paper PMC7125110 come the findings set out here.

To fix the notation:
B1: glmS ribozyme (parent)
chain: AUAAAAGCGCCAGAACUACAGAAAUGUAGUUGACGAGGAGGAGGUUUAUCGAAUUUUCGGCGGAUGCCUCCAAA

Common to all, as to conditions: with glucosamine-6-phosphate
Series [1] covers variants of B1. The series is described as follows: self-cleavage kobs at 40 uM GlcN6P; higher = faster cleavage; RNA array. The method, boiled down: (§1)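 Over ~14 h at 37 °C, tiles were imaged as glucosamine-6-phosphate (40 μM to 10 mM) in HEPES/KCl/Mg(OAc)2 buffer flowed across sequenced MiSeq chips. The chips carried barcoded ribozyme variants transcribed in situ by E. coli RNA polymerase and tracked with a hybridised Cy3 probe. After normalisation to baseline and to non-cleaving reference variants, one- or two-exponential decay fits of per-tile medians gave kobs. kcat and KM followed from weighted Michaelis–Menten fits across concentrations.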

Series [2] covers variants of B1. In words: self-cleavage kobs at 160 uM GlcN6P; higher = faster cleavage; RNA array. The method in brief:
as §1

Series [3] covers variants of B1. In words: self-cleavage kobs at 640 uM GlcN6P; higher = faster cleavage; RNA array. The method in brief:
as §1

The variants in series [4] derive from B1. The series is described as follows: self-cleavage kobs at 2500 uM GlcN6P; higher = faster cleavage; RNA array. The method in brief: as §1
The variants in series [5] derive from B1. In words: self-cleavage kobs at 10000 uM GlcN6P; higher = faster cleavage; RNA array. The method, boiled down: as §1

± gives the standard error. Variants at the floor of the assay were thinned out. Some results are limits rather than exact numbers.

For the variant A6G U31C C71U, the “self-cleavage kobs at 40 uM GlcN6P” value in the series with glucosamine-6-phosphate [1] was less than 1e-05 s⁻¹.
For the variant A12C A14G, the “self-cleavage kobs at 40 uM GlcN6P” value with glucosamine-6-phosphate [1] was found to be 0.00067 ± 0.00016 s⁻¹. The “self-cleavage kobs at 160 uM GlcN6P” value with glucosamine-6-phosphate [2] turned out to be 0.00156 ± 0.00021 s⁻¹. The “self-cleavage kobs at 640 uM GlcN6P” value with glucosamine-6-phosphate [3] came to 0.00653 ± 0.0012 s⁻¹. Besides, the “self-cleavage kobs at 2500 uM GlcN6P” value in the series with glucosamine-6-phosphate [4] came to 0.0128 ± 0.0023 s⁻¹. The “self-cleavage kobs at 10000 uM GlcN6P” value with glucosamine-6-phosphate [5] came out at 0.0484 ± 0.011 s⁻¹.
For the variant U30G C34A G51U A64U, in the series with glucosamine-6-phosphate [1], the “self-cleavage kobs at 40 uM GlcN6P” value is less than 1e-05 s⁻¹.
Consider G29C G59U C68U, for which the “self-cleavage kobs at 160 uM GlcN6P” value with glucosamine-6-phosphate [2] is 0.000173 ± 8.1e-05 s⁻¹.
As for U57C C61U, the “self-cleavage kobs at 40 uM GlcN6P” value with glucosamine-6-phosphate [1] is less than 1e-05 s⁻¹. Moreover, in the series with glucosamine-6-phosphate [2], the “self-cleavage kobs at 160 uM GlcN6P” value was less than 1e-05 s⁻¹. Further, the “self-cleavage kobs at 640 uM GlcN6P” value with glucosamine-6-phosphate [3] is less than 1e-05 s⁻¹. The “self-cleavage kobs at 2500 uM GlcN6P” value in the series with glucosamine-6-phosphate [4] is less than 1e-05 s⁻¹. Also, in the series with glucosamine-6-phosphate [5], the “self-cleavage kobs at 10000 uM GlcN6P” value is less than 1e-05 s⁻¹.
With A42G C67U, in the series with glucosamine-6-phosphate [1], the “self-cleavage kobs at 40 uM GlcN6P” value is 0.000328 ± 4.2e-05 s⁻¹. The “self-cleavage kobs at 160 uM GlcN6P” value in the series with glucosamine-6-phosphate [2] worked out at 0.00136 ± 0.00031 s⁻¹. For the same variant, in the series with glucosamine-6-phosphate [3], the “self-cleavage kobs at 640 uM GlcN6P” value is 0.00155 ± 0.00035 s⁻¹. For the same variant, the “self-cleavage kobs at 2500 uM GlcN6P” value with glucosamine-6-phosphate [4] was 0.00245 ± 0.00057 s⁻¹. Also, the “self-cleavage kobs at 10000 uM GlcN6P” value with glucosamine-6-phosphate [5] amounted to 0.00807 ± 0.0016 s⁻¹.
In the case of G13C A42G G51C U56C C67A, the “self-cleavage kobs at 160 uM GlcN6P” value with glucosamine-6-phosphate [2] is less than 1e-05 s⁻¹. Moreover, in the series with glucosamine-6-phosphate [4], the “self-cleavage kobs at 2500 uM GlcN6P” value was less than 1e-05 s⁻¹.
For the variant A12C A39G C70U, the “self-cleavage kobs at 160 uM GlcN6P” value with glucosamine-6-phosphate [2] was 0.000758 ± 0.00028 s⁻¹.
Take C34G G38U G40C C68A: in the series with glucosamine-6-phosphate [1], the “self-cleavage kobs at 40 uM GlcN6P” value was less than 1e-05 s⁻¹. Also, the “self-cleavage kobs at 10000 uM GlcN6P” value with glucosamine-6-phosphate [5] is less than 1e-05 s⁻¹.
In the case of C50U C67G, the “self-cleavage kobs at 160 uM GlcN6P” value with glucosamine-6-phosphate [2] came out at 0.000148 ± 6.3e-05 s⁻¹. Besides, in the series with glucosamine-6-phosphate [3], the “self-cleavage kobs at 640 uM GlcN6P” value came to 2.88e-05 ± 1.2e-05 s⁻¹. Moreover, the “self-cleavage kobs at 2500 uM GlcN6P” value with glucosamine-6-phosphate [4] stood at 2.44e-05 ± 1.1e-05 s⁻¹.
C34A G51A G63U C71U: the “self-cleavage kobs at 40 uM GlcN6P” value with glucosamine-6-phosphate [1] was less than 1e-05 s⁻¹. In addition, the “self-cleavage kobs at 10000 uM GlcN6P” value with glucosamine-6-phosphate [5] is less than 1e-05 s⁻¹.
As for G9U C58U, the “self-cleavage kobs at 160 uM GlcN6P” value with glucosamine-6-phosphate [2] was less than 1e-05 s⁻¹. Further, the “self-cleavage kobs at 640 uM GlcN6P” value with glucosamine-6-phosphate [3] is less than 1e-05 s⁻¹. For the same variant, the “self-cleavage kobs at 2500 uM GlcN6P” value with glucosamine-6-phosphate [4] is less than 1e-05 s⁻¹.
In the case of C16G A33C C71U, the “self-cleavage kobs at 160 uM GlcN6P” value with glucosamine-6-phosphate [2] was less than 1e-05 s⁻¹. In addition, in the series with glucosamine-6-phosphate [3], the “self-cleavage kobs at 640 uM GlcN6P” value was less than 1e-05 s⁻¹. For the same variant, the “self-cleavage kobs at 2500 uM GlcN6P” value in the series with glucosamine-6-phosphate [4] is less than 1e-05 s⁻¹.
For the variant G40U G43U, the “self-cleavage kobs at 40 uM GlcN6P” value with glucosamine-6-phosphate [1] is less than 1e-05 s⁻¹. Further, in the series with glucosamine-6-phosphate [2], the “self-cleavage kobs at 160 uM GlcN6P” value is less than 1e-05 s⁻¹. Further, the “self-cleavage kobs at 640 uM GlcN6P” value with glucosamine-6-phosphate [3] was less than 1e-05 s⁻¹. Besides, the “self-cleavage kobs at 10000 uM GlcN6P” value with glucosamine-6-phosphate [5] was less than 1e-05 s⁻¹.
Take C16G C34G G44U C50U U69C: the “self-cleavage kobs at 40 uM GlcN6P” value with glucosamine-6-phosphate [1] was less than 1e-05 s⁻¹.
Still for that read-out and setting: next, G41A C67U U69A: less than 1e-05 s⁻¹.
A6C U30G G51A U65G: the “self-cleavage kobs at 40 uM GlcN6P” value in the series with glucosamine-6-phosphate [1] is less than 1e-05 s⁻¹. Moreover, in the series with glucosamine-6-phosphate [5], the “self-cleavage kobs at 10000 uM GlcN6P” value was less than 1e-05 s⁻¹.
Take C11G U31A A33U A36C: the “self-cleavage kobs at 40 uM GlcN6P” value with glucosamine-6-phosphate [1] was less than 1e-05 s⁻¹. Also, the “self-cleavage kobs at 2500 uM GlcN6P” value in the series with glucosamine-6-phosphate [4] was less than 1e-05 s⁻¹. Further, the “self-cleavage kobs at 10000 uM GlcN6P” value in the series with glucosamine-6-phosphate [5] is less than 1e-05 s⁻¹.
A14G C16U G37A C67G C70G: in the series with glucosamine-6-phosphate [1], the “self-cleavage kobs at 40 uM GlcN6P” value was less than 1e-05 s⁻¹. Besides, the “self-cleavage kobs at 2500 uM GlcN6P” value with glucosamine-6-phosphate [4] was less than 1e-05 s⁻¹.
As to A12U U56A, in the series with glucosamine-6-phosphate [1], the “self-cleavage kobs at 40 uM GlcN6P” value came out at 0.00122 ± 0.00016 s⁻¹. The “self-cleavage kobs at 160 uM GlcN6P” value in the series with glucosamine-6-phosphate [2] was 0.0024 ± 0.00059 s⁻¹. The “self-cleavage kobs at 640 uM GlcN6P” value with glucosamine-6-phosphate [3] worked out at 0.0157 ± 0.0027 s⁻¹. The “self-cleavage kobs at 2500 uM GlcN6P” value in the series with glucosamine-6-phosphate [4] worked out at 0.04 ± 0.012 s⁻¹. For the same variant, the “self-cleavage kobs at 10000 uM GlcN6P” value with glucosamine-6-phosphate [5] is 0.0626 ± 0.016 s⁻¹.
As to G35U G43A, the “self-cleavage kobs at 160 uM GlcN6P” value with glucosamine-6-phosphate [2] was less than 1e-05 s⁻¹. Further, the “self-cleavage kobs at 2500 uM GlcN6P” value in the series with glucosamine-6-phosphate [4] was less than 1e-05 s⁻¹. Moreover, in the series with glucosamine-6-phosphate [5], the “self-cleavage kobs at 10000 uM GlcN6P” value was less than 1e-05 s⁻¹.
In the case of G7A U47A, the “self-cleavage kobs at 40 uM GlcN6P” value with glucosamine-6-phosphate [1] is less than 1e-05 s⁻¹. Further, in the series with glucosamine-6-phosphate [2], the “self-cleavage kobs at 160 uM GlcN6P” value is less than 1e-05 s⁻¹.
G9C C10G: the “self-cleavage kobs at 40 uM GlcN6P” value with glucosamine-6-phosphate [1] is less than 1e-05 s⁻¹. The “self-cleavage kobs at 160 uM GlcN6P” value with glucosamine-6-phosphate [2] was less than 1e-05 s⁻¹. Besides, the “self-cleavage kobs at 640 uM GlcN6P” value with glucosamine-6-phosphate [3] was less than 1e-05 s⁻¹. The “self-cleavage kobs at 2500 uM GlcN6P” value in the series with glucosamine-6-phosphate [4] was less than 1e-05 s⁻¹. In the series with glucosamine-6-phosphate [5], the “self-cleavage kobs at 10000 uM GlcN6P” value was less than 1e-05 s⁻¹.
